Legend:
[1] = biological target: Pus8AA+LMY➔A-ACE2-Cherry (human) (UniProt Q9BYF1)
[2] = biological target: mACE 1-357 ACE2-Cherry hybrid (mouse | human) (UniProt Q8R0I0)

For “OM.BA.1-RBD-β2AR-GFP (from UniProt P0DTC2 333-529) (domain or fragment)”, the reduction of Pus8AA +LMY➔A-Cherry fluorescence, DPF assay [1] was 17.2% and the loss of ACE2 fluorescence, DPF assay [2] was 24.8%.
